Measured values as given in article PMC8812556 (Proceedings of the National Academy of Sciences of the …, 2022).
One block for each molecule: values may come before it.

What was measured:
[1] = biological target: BiP double-mutant G518C and Y636C labelled with AlexaFluor 555 and AlexaFluor 647 (UniProt P20029); experiment: other fluorescence titration
[2] = biological target: FITC-labeled BiP-NBD (D27C variant) (UniProt P20029); experiment: fluorescence polarisation
cross-linking = biological target: the molecule itself; experiment: cross-linking

Molecule: Wild-type mouse Grp94 (72 to 765) (from UniProt P08113 72-765) (natural protein)
- Kd [2]: 950 nM

B1: Grp94 M86C (natural protein, mouse, UniProt P08113 72-765, looked up)
chain: KSEKFAFQAEVNRMCKLIINSLYKNKEIFLRELISNASDALDKIRLISLTDENALAGNEELTVKIKCDKEKNLLHVTDTGVGMTREELVKNLGTIAKSGTSEFLNKMTEAQEDGQSTSELIGQFGVGFYSAFLVADKVIVTSKHNNDTQHIWESDSNEFSVIADPRGNTLGRGTTITLVLKEEASDYLELDTIKNLVRKYSQFINFPIYVWSSKTETVEEPLEEDEAAKEEKEESDDEAAVEEEEEEKKPKTKKVEKTVWDWELMNDIKPIWQRPSKEVEEDEYKAFYKSFSKESDDPMAYIHFTAEGEVTFKSILFVPTSAPRGLFDEYGSKKSDYIKLYVRRVFITDDFHDMMPKYLNFVKGVVDSDDLPLNVSRETLQQHKLLKVIRKKLVRKTLDMIKKIADEKYNDTFWKEFGTNIKLGVIEDHSNRTRLAKLLRFQSSHHSTDITSLDQYVERMKEKQDKIYFMAGSSRKEAESSPFVERLLKKGYEVIYLTEPVDEYCIQALPEFDGKRFQNVAKEGVKFDESEKTKESREATEKEFEPLLNWMKDKALKDKIEKAVVSQRLTESPCALVASQYGWSGNMERIMKAQAYQTGKDISTNYYASQKKTFEINPRHPLIRDMLRRIKEDEDDKTVMDLAVVLFETATLRSGYLLPDTKAYGDRIERMLRLSLNIDPEAQVEEEPEEEPED
- binding result (cross-linking): binds

Next, values leading:

- Kd [1]: 130 nM
Molecule: Mouse E-peptide containing an N-terminal six-histidine tag and S95C mutation (domain or fragment)

- fold affinity enhancement versus wild-type Grp94 [2]: 50 fold
Molecule: M86C cross-linked Grp94 (from UniProt P08113 72-765) (natural protein)
